Laboratory results: patent US20140087995A1 (published 2014)
Numbered stars: 1 amine (or outer) side, 2 acyl side, 3 side chain; on linkers, the order of the positions; unused ones are H or OH. Bridge positions count the residues as written; N and C are the ends. Side chains are listed from the residue outwards. Ends that are not written are not given here. * marks the point of attachment. C20 diacid = O=C(O)CCCCCCCCCCCCCCCCCCC(=O)*; γGlu = O=C(O)[C@H](CCC(=O)[*:2])N[*:1]; AEEA = NCCOCCOCC(=O)O

T1: human calcitonin receptor (human, UniProt P30988 25-474)
T1 construct: whole, on cells; Used as cell membranes; also called hCTR; hCT
T1 sequence (looked up): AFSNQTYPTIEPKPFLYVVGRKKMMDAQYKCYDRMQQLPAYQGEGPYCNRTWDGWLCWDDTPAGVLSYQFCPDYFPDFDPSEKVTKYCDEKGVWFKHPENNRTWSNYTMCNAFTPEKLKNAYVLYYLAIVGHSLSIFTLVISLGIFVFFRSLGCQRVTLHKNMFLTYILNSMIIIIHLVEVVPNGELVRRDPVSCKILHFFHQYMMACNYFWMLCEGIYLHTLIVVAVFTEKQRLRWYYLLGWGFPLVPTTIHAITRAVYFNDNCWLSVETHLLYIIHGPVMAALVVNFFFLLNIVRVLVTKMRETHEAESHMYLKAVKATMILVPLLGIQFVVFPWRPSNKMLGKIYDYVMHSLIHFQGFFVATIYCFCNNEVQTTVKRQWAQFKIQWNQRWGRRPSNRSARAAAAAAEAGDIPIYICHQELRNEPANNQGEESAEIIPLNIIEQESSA

B1: N^ε1-[2-[2-[2-[[2-[2-[2-[[(4S)-4-carboxy-4-(19-carboxynonadecanoylamino)butanoyl]amino]ethoxy]ethoxy]acetyl]amino]ethoxy]ethoxy]acetyl]-[Arg17,Pro21,Pro27,His34 … (peptide)
peptide: K([AEEA-AEEA-γGlu-C20 diacid])CNTATCATQRLANFLRHSSPNFGAIPSSTNVGHNTY-NH2
modifications: disulfide 2-7; N-terminus assumed
SMILES: CC[C@H](C)[C@H](NC(=O)[C@H](C)NC(=O)CNC(=O)[C@H](Cc1ccccc1)NC(=O)[C@H](CC(N)=O)NC(=O)[C@@H]1CCCN1C(=O)[C@H](CO)NC(=O)[C@H](CO)NC(=O)[C@H](Cc1c[nH]cn1)NC(=O)[C@H](CCCNC(=N)N)NC(=O)[C@H](CC(C)C)NC(=O)[C@H](Cc1ccccc1)NC(=O)[C@H](CC(N)=O)NC(=O)[C@H](C)NC(=O)[C@H](CC(C)C)NC(=O)[C@H](CCCNC(=N)N)NC(=O)[C@H](CCC(N)=O)NC(=O)[C@@H](NC(=O)[C@H](C)NC(=O)[C@@H]1CSSC[C@H](NC(=O)[C@@H](N)CCCCNC(=O)COCCOCCNC(=O)COCCOCCNC(=O)CC[C@H](NC(=O)CCCCCCCCCCCCCCCCCCC(=O)O)C(=O)O)C(=O)N[C@@H](CC(N)=O)C(=O)N[C@@H]([C@@H](C)O)C(=O)N[C@@H](C)C(=O)N[C@@H]([C@@H](C)O)C(=O)N1)[C@@H](C)O)C(=O)N1CCC[C@H]1C(=O)N[C@@H](CO)C(=O)N[C@@H](CO)C(=O)N[C@H](C(=O)N[C@@H](CC(N)=O)C(=O)N[C@H](C(=O)NCC(=O)N[C@@H](Cc1c[nH]cn1)C(=O)N[C@@H](CC(N)=O)C(=O)N[C@H](C(=O)N[C@@H](Cc1ccc(O)cc1)C(N)=O)[C@@H](C)O)C(C)C)[C@@H](C)O
notes: also called compound 97
B2: N^ε1-[(4S)-4-carboxy-4-(19-carboxynonadecanoylamino)butanoyl]-[Arg17,Pro21,Pro27,His34]-h-amylin (peptide)
peptide: K([γGlu-C20 diacid])CNTATCATQRLANFLRHSSPNFGAIPSSTNVGHNTY-NH2
modifications: disulfide 2-7; N-terminus assumed
SMILES: CC[C@H](C)[C@H](NC(=O)[C@H](C)NC(=O)CNC(=O)[C@H](Cc1ccccc1)NC(=O)[C@H](CC(N)=O)NC(=O)[C@@H]1CCCN1C(=O)[C@H](CO)NC(=O)[C@H](CO)NC(=O)[C@H](Cc1c[nH]cn1)NC(=O)[C@H](CCCNC(=N)N)NC(=O)[C@H](CC(C)C)NC(=O)[C@H](Cc1ccccc1)NC(=O)[C@H](CC(N)=O)NC(=O)[C@H](C)NC(=O)[C@H](CC(C)C)NC(=O)[C@H](CCCNC(=N)N)NC(=O)[C@H](CCC(N)=O)NC(=O)[C@@H](NC(=O)[C@H](C)NC(=O)[C@@H]1CSSC[C@H](NC(=O)[C@@H](N)CCCCNC(=O)CC[C@H](NC(=O)CCCCCCCCCCCCCCCCCCC(=O)O)C(=O)O)C(=O)N[C@@H](CC(N)=O)C(=O)N[C@@H]([C@@H](C)O)C(=O)N[C@@H](C)C(=O)N[C@@H]([C@@H](C)O)C(=O)N1)[C@@H](C)O)C(=O)N1CCC[C@H]1C(=O)N[C@@H](CO)C(=O)N[C@@H](CO)C(=O)N[C@H](C(=O)N[C@@H](CC(N)=O)C(=O)N[C@H](C(=O)NCC(=O)N[C@@H](Cc1c[nH]cn1)C(=O)N[C@@H](CC(N)=O)C(=O)N[C@H](C(=O)N[C@@H](Cc1ccc(O)cc1)C(N)=O)[C@@H](C)O)C(C)C)[C@@H](C)O
notes: also called compound 77
B3: N^ε1-[(4S)-4-carboxy-4-[[(4S)-4-carboxy-4-(19-carboxynonadecanoylamino)butanoyl]amino]butanoyl]-[Glu14,Arg17,Pro21,Pro27,Pro34,Glu35]-h-amylin (peptide)
peptide: K([γGlu-γGlu-C20 diacid])CNTATCATQRLAEFLRHSSPNFGAIPSSTNVGPETY-NH2
modifications: disulfide 2-7; N-terminus assumed
SMILES: CC[C@H](C)[C@H](NC(=O)[C@H](C)NC(=O)CNC(=O)[C@H](Cc1ccccc1)NC(=O)[C@H](CC(N)=O)NC(=O)[C@@H]1CCCN1C(=O)[C@H](CO)NC(=O)[C@H](CO)NC(=O)[C@H](Cc1c[nH]cn1)NC(=O)[C@H](CCCNC(=N)N)NC(=O)[C@H](CC(C)C)NC(=O)[C@H](Cc1ccccc1)NC(=O)[C@H](CCC(=O)O)NC(=O)[C@H](C)NC(=O)[C@H](CC(C)C)NC(=O)[C@H](CCCNC(=N)N)NC(=O)[C@H](CCC(N)=O)NC(=O)[C@@H](NC(=O)[C@H](C)NC(=O)[C@@H]1CSSC[C@H](NC(=O)[C@@H](N)CCCCNC(=O)CC[C@H](NC(=O)CC[C@H](NC(=O)CCCCCCCCCCCCCCCCCCC(=O)O)C(=O)O)C(=O)O)C(=O)N[C@@H](CC(N)=O)C(=O)N[C@@H]([C@@H](C)O)C(=O)N[C@@H](C)C(=O)N[C@@H]([C@@H](C)O)C(=O)N1)[C@@H](C)O)C(=O)N1CCC[C@H]1C(=O)N[C@@H](CO)C(=O)N[C@@H](CO)C(=O)N[C@H](C(=O)N[C@@H](CC(N)=O)C(=O)N[C@H](C(=O)NCC(=O)N1CCC[C@H]1C(=O)N[C@@H](CCC(=O)O)C(=O)N[C@H](C(=O)N[C@@H](Cc1ccc(O)cc1)C(N)=O)[C@@H](C)O)C(C)C)[C@@H](C)O
B4: N^ε1N^ε1-[(4S)-4-carboxy-4-(19-carboxynonadecanoylamino)butanoyl]-[His14,Arg17,Pro21,Pro27,Pro34]-h-amylin (peptide)
peptide: K([γGlu-C20 diacid])CNTATCATQRLAHFLRHSSPNFGAIPSSTNVGPNTY-NH2
modifications: disulfide 2-7; N-terminus assumed
SMILES: CC[C@H](C)[C@H](NC(=O)[C@H](C)NC(=O)CNC(=O)[C@H](Cc1ccccc1)NC(=O)[C@H](CC(N)=O)NC(=O)[C@@H]1CCCN1C(=O)[C@H](CO)NC(=O)[C@H](CO)NC(=O)[C@H](Cc1c[nH]cn1)NC(=O)[C@H](CCCNC(=N)N)NC(=O)[C@H](CC(C)C)NC(=O)[C@H](Cc1ccccc1)NC(=O)[C@H](Cc1c[nH]cn1)NC(=O)[C@H](C)NC(=O)[C@H](CC(C)C)NC(=O)[C@H](CCCNC(=N)N)NC(=O)[C@H](CCC(N)=O)NC(=O)[C@@H](NC(=O)[C@H](C)NC(=O)[C@@H]1CSSC[C@H](NC(=O)[C@@H](N)CCCCNC(=O)CC[C@H](NC(=O)CCCCCCCCCCCCCCCCCCC(=O)O)C(=O)O)C(=O)N[C@@H](CC(N)=O)C(=O)N[C@@H]([C@@H](C)O)C(=O)N[C@@H](C)C(=O)N[C@@H]([C@@H](C)O)C(=O)N1)[C@@H](C)O)C(=O)N1CCC[C@H]1C(=O)N[C@@H](CO)C(=O)N[C@@H](CO)C(=O)N[C@H](C(=O)N[C@@H](CC(N)=O)C(=O)N[C@H](C(=O)NCC(=O)N1CCC[C@H]1C(=O)N[C@@H](CC(N)=O)C(=O)N[C@H](C(=O)N[C@@H](Cc1ccc(O)cc1)C(N)=O)[C@@H](C)O)C(C)C)[C@@H](C)O
notes: also called compound 67
B5: N^ε1-[(4S)-4-carboxy-4-[[(4S)-4-carboxy-4-(19-carboxynonadecanoylamino)butanoyl]amino]butanoyl]-[His14,Arg17,Pro21,Pro27]-h-amylin (peptide)
peptide: K([γGlu-γGlu-C20 diacid])CNTATCATQRLAHFLRHSSPNFGAIPSSTNVGSNTY-NH2
modifications: disulfide 2-7; N-terminus assumed
SMILES: CC[C@H](C)[C@H](NC(=O)[C@H](C)NC(=O)CNC(=O)[C@H](Cc1ccccc1)NC(=O)[C@H](CC(N)=O)NC(=O)[C@@H]1CCCN1C(=O)[C@H](CO)NC(=O)[C@H](CO)NC(=O)[C@H](Cc1c[nH]cn1)NC(=O)[C@H](CCCNC(=N)N)NC(=O)[C@H](CC(C)C)NC(=O)[C@H](Cc1ccccc1)NC(=O)[C@H](Cc1c[nH]cn1)NC(=O)[C@H](C)NC(=O)[C@H](CC(C)C)NC(=O)[C@H](CCCNC(=N)N)NC(=O)[C@H](CCC(N)=O)NC(=O)[C@@H](NC(=O)[C@H](C)NC(=O)[C@@H]1CSSC[C@H](NC(=O)[C@@H](N)CCCCNC(=O)CC[C@H](NC(=O)CC[C@H](NC(=O)CCCCCCCCCCCCCCCCCCC(=O)O)C(=O)O)C(=O)O)C(=O)N[C@@H](CC(N)=O)C(=O)N[C@@H]([C@@H](C)O)C(=O)N[C@@H](C)C(=O)N[C@@H]([C@@H](C)O)C(=O)N1)[C@@H](C)O)C(=O)N1CCC[C@H]1C(=O)N[C@@H](CO)C(=O)N[C@@H](CO)C(=O)N[C@H](C(=O)N[C@@H](CC(N)=O)C(=O)N[C@H](C(=O)NCC(=O)N[C@@H](CO)C(=O)N[C@@H](CC(N)=O)C(=O)N[C@H](C(=O)N[C@@H](Cc1ccc(O)cc1)C(N)=O)[C@@H](C)O)C(C)C)[C@@H](C)O
notes: also called compound 92
B6: N^ε1-[2-[2-[2-(19-carboxynonadecanoylamino)ethoxy]ethoxy]acetyl]-[Arg17,Pro21,Pro27,His34]-h-amylin (peptide)
peptide: K([AEEA-C20 diacid])CNTATCATQRLANFLRHSSPNFGAIPSSTNVGHNTY-NH2
modifications: disulfide 2-7; N-terminus assumed
SMILES: CC[C@H](C)[C@H](NC(=O)[C@H](C)NC(=O)CNC(=O)[C@H](Cc1ccccc1)NC(=O)[C@H](CC(N)=O)NC(=O)[C@@H]1CCCN1C(=O)[C@H](CO)NC(=O)[C@H](CO)NC(=O)[C@H](Cc1c[nH]cn1)NC(=O)[C@H](CCCNC(=N)N)NC(=O)[C@H](CC(C)C)NC(=O)[C@H](Cc1ccccc1)NC(=O)[C@H](CC(N)=O)NC(=O)[C@H](C)NC(=O)[C@H](CC(C)C)NC(=O)[C@H](CCCNC(=N)N)NC(=O)[C@H](CCC(N)=O)NC(=O)[C@@H](NC(=O)[C@H](C)NC(=O)[C@@H]1CSSC[C@H](NC(=O)[C@@H](N)CCCCNC(=O)COCCOCCNC(=O)CCCCCCCCCCCCCCCCCCC(=O)O)C(=O)N[C@@H](CC(N)=O)C(=O)N[C@@H]([C@@H](C)O)C(=O)N[C@@H](C)C(=O)N[C@@H]([C@@H](C)O)C(=O)N1)[C@@H](C)O)C(=O)N1CCC[C@H]1C(=O)N[C@@H](CO)C(=O)N[C@@H](CO)C(=O)N[C@H](C(=O)N[C@@H](CC(N)=O)C(=O)N[C@H](C(=O)NCC(=O)N[C@@H](Cc1c[nH]cn1)C(=O)N[C@@H](CC(N)=O)C(=O)N[C@H](C(=O)N[C@@H](Cc1ccc(O)cc1)C(N)=O)[C@@H](C)O)C(C)C)[C@@H](C)O
notes: also called compound 91

target: T1, human calcitonin receptor; experiment: ratio of hCTR IC50 to hAmylin-R IC50 (reference: human amylin receptor)
Summary of the method: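 Membranes (35 ng/μL final) + SPA beads, 50 mM Hepes pH 7.4 buffer with 1 mM CaCl2, 5 mM MgCl₂, 0.1% OA, 0.02% Tween20; 120 min, 25° C, shaking; centrifuged, counted; IC₅₀ by one-site binding competition.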

Binder	Ratio hCT/hAmylin binding
B1	104
B2	118
B3	17.6
B4	51.6
B5	145
B6	101

target: T1, human calcitonin receptor; experiment: SPA competition on BHK cell membranes, 125I-calcitonin as radioligand (Assay VII)
Summary of the method: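 BHK hCTR membranes 35 ng/μL + SPA beads 0.05 mg/well; buffer 50 mM Hepes pH 7.4, 1 mM CaCl2, 5 mM MgCl₂, 0.1% OA, 0.02% Tween20. 120 min, 25° C., shaking. Scintillation count; IC50 by one-site binding competition.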

Binder	IC50
B1	58.9 nM
B2	50.7 nM
B3	2.13 nM
B4	4.63 nM
B5	26 nM
B6	12 nM
